Here are results for 1 molecule from patent US20230235069A1 (KYMAB, published 2023).

The experiment deals with T1, human OX40 ligand (human, UniProt P23510 51-183, limits assumed).
T1 construct: also called hOX40L; the target
T1 sequence (looked up): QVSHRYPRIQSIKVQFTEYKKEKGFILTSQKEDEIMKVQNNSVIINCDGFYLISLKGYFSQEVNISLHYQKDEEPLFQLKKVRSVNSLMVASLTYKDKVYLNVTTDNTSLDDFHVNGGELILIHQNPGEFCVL
The experiment can be described thus: PK ELISA of KY1005 in human serum on coated human OX40 ligand. Background: ELISA stands for enzyme-linked immunosorbent assay.

B1: KY1005 (antibody, human IgG4 S228P, kappa, V domains shown)
VH: EVQLVESGGGLVQPGGSLRLSCAASGFTFSNYAMNWVRQAPGKGLEWVSTISGSGGATRYADSVKGRFTISRDNSRNTVYLQMNSLRVEDTAVFYCTKDRLIMATVRGPYYYGMDVWGQGTTVTVSS
VL: DIQMTQSPSSLSASVGDRVTITCRASQSISSYLNWYQQKPGKAPNLLIYAASSLQSGVPSRFSGSGSETDFTLTISSLQPEDFATYYCQQSHSVSFTFGPGTKVDIKR
notes: also called 2D10; 02D10
Consider B1, for which the binding result is “binds”.
